Source: PMC3524506

Tested on: OmpR-P-His6 (phosphorylated) (Yersinia enterocolitica O9 Ye9?)
Experiment: EMSA
Conditions: 40 mM Tris-HCl pH 8.0, 100 mM KCl, 10 mM MgCl2, 5% glycerol, room temperature 30 min, scale: fold lower minimum binding amount than non-phosphorylated OmpR

In the case of inv promoter fragment 553 bp, the binding signal is reported as 3.
